{"source": "patent US20230122991A1", "about": "“GROWTH FACTOR FORMULATION FOR CONDITION ASSOCIATED WITH OTIC EVENT” (OTONOMY, INC., priority 2020, published 2023)", "assay_type_in_all_cases": "in vivo, rat", "key": {"noise exposed adult rats": {"tested_on": "noise exposed adult rats", "assay": "Noise-induced hearing loss/synaptopathy, synaptic analysis of inner hair cells (Example A1)", "details": "sustained release formulation, 0.005% BDNF in Poloxamer 407, single unilateral intratympanic administration 24 hrs after noise; Day 28; compared to vehicle treatment; FIG. 3B", "procedure": "Male rats (Charles River) approximately 10-11 months of age served as subjects (N=6 per group). Prior to any procedures, animals were anesthetized using a combination of xylazine (10 mg/kg) and ketamine (90 mg/kg) for up to one hour via the intraperitoneal route. If needed, an intraoperative booster was administered intraperitoneally representing one-tenth of the original dose.\nNoise exposure—Anesthetized animals (4 at a time) were placed in an enclosure and exposed to noise. The characteristics of the acoustic trauma were as follows: a single period of 1 h, sound pressure level of 105 dB SPL with a narrow band pass of 8-16 kHz. Noise was delivered using a Grason Stadler white noise generator, filtered through a Krohn Hite 3750 unit, amplified using a Crown D75 unit, and conveyed via a JBL speaker (model 2446H). Following treatment, the animals were returned to the vivarium. Noise exposure was calibrated over a range of 80-115 dB SPL across a wide range of frequencies using the Acoustical Interface Precision Microphone System and the Tucker Davis Technologies system. […]\nSynaptic Analysis—Flat-mounted cochlear pieces from each ear were imaged at low magnification (10×) and the total length of the imaged tissue was measured and the frequency domains (4, 10, 20 and 40 kHz) were mapped onto the images. […]"}, "[1]": {"tested_on": "adult rats following noise damage", "assay": "Noise-induced cochlear synaptopathy, IHC synaptic puncta counts (Example G)", "details": "each frequency region throughout the cochlea; BDNF in P407 after noise; Day 28; FIG. 13C", "procedure": "(§1) Animals: Male Sprague-Dawley rats (5-6 months of age) were used for efficacy studies and females (2-3 months) were used for pharmacokinetic studies.\nFormulations: Human recombinant BDNF was suspended in the thermoreversible polymer Poloxamer 407 (16%) to reach a range of BDNF concentrations.\n(§2) Intratympanic (IT) injection: Formulations were administered under anesthesia as a single IT injection (20 μl) through the tympanic membrane into the middle ear, targeting the round window membrane (RWM).\nNoise-induced cochlear synaptopathy: Rats (n=44 per treatment group) received a single acoustic trauma (105 dB SPL, 8-16 kHz, 1 h) under anesthesia. 24 hours later (Day 1) animals received a single bilateral IT injection of the treatment regimens. Auditory function (ABR and ABR wave 1 amplitude) was monitored at day 1 and then every 7 days for 28 days. At termination (Day 28), cochleae were collected and assessed for evidence of cochlear synaptopathy (IHC synaptic puncta counts).\nImmunohistochemistry: Dissected cochleae were immunostained with antibodies against presynaptic (CtBP2) and postsynaptic (GluR2) proteins and MyosinVIIa to label hair cells. Cochleae were then frequency mapped and high-magnification images were obtained with a Zeiss LSM-880 confocal microscope and imaged at an interval of 0.35 μm.\nIntratympanic BDNF repairs cochlear synaptopathy in adult rats. […]"}, "[2]": {"tested_on": "adult male rats bilaterally exposed to noise", "assay": "Noise-induced cochlear synaptopathy, ABR and wave I amplitude after delayed intratympanic injection (Example L)", "details": "for ABR threshold shift: ABR at day 28, FIG. 21; for wave I amplitudes: day 28, FIG. 22", "procedure": "as §1\nFormulations: Human recombinant BDNF was suspended in the thermoreversible polymer Poloxamer 407 (16%) to reach a BDNF concentration of 0.005%.\nas §2\nNoise-induced cochlear synaptopathy: Rats received a single acoustic trauma (105 dB SPL, 8-16 kHz, 1 h) under anesthesia. […] Auditory function (ABR and ABR wave 1 amplitude) was monitored at day 28. At termination (Day 28), cochleae were collected and assessed for evidence of cochlear synaptopathy (IHC synaptic puncta counts).\nIntratympanic BDNF Injected 1, 3, or 7 Days After Acoustic Trauma improves Auditory Brainstem Response (ABR) thresholds and wave I amplitudes in adult rats. The Auditory Brainstem Response (ABR) is an objective test that measures hearing sensitivity and can identify abnormalities in the peripheral auditory system and the auditory pathway up through the brainstem. Adult male rats were bilaterally exposed to noise followed by an intratympanic injection of 0.005% BDNF in P407 1 day, 3 days, 7 days, or 14 days after noise exposure. ABR recordings were obtained at day 28.\nThe ABR Wave I amplitude is an indicator of the strength of the distal cochlear nerve signal, i.e., the response of the spiral ganglion neurons/synapses."}, "[3]": {"details": "0.005% BDNF in P407 injected 1, 3, or 7 days after noise exposure"}, "[4]": {"details": "0.005% BDNF in P407 injected 14 days after noise exposure"}}, "data": [{"molecule": "brain-derived neurotrophic factor (protein, UniProt P23560 129-247, looked up, Neurotrophic factor BDNF in 16% poloxamer 407 gel, Human recombinant BDNF) Neurotrophic factor BDNF: HSDPARRGELSVCDSISEWVTAADKKTAVDMSGGTVTVLEKVPVSKGQLKQYFYETKCNPMGYTKEGCRGIDKRHWNSQCRTTQSYVRALTMDSKKRIGWRFIRIDTSCVCTLTIKRGR", "values": [{"measurement": "number of ribbon synapses per inner hair cell", "setting": "noise exposed adult rats", "result": "increased"}, {"measurement": "synaptic puncta (co-expression of CtBp2 and GluR2) per inner hair cell", "setting": "[1]", "result": "increased"}, {"measurement": "ABR threshold shift", "setting": "[2]; [3]", "result": "more rapid recovery of initial threshold shifts and overall reduced levels of hearing loss"}, {"measurement": "wave I amplitudes", "setting": "[2]; [3]", "result": "significant improvements"}, {"measurement": "ABR threshold shift", "setting": "[2]; [4]", "result": "did not showed a more rapid recovery of initial threshold shifts and overall reduced levels of hearing loss"}, {"measurement": "wave I amplitudes", "setting": "[2]; [4]", "result": "did not show significant improvements"}]}]}
